Data as given in patent US20240301086A1 (APTEVO RESEARCH AND DEVELOPMENT, published 2024).
Like-named read-outs stand apart in the source and are kept apart here.

Columns and labels:
[1] = biological target: T1, human Fcγ receptor IIA, R167 variant (human, UniProt P12318 36-218); test: SPR (Biacore T200), construct amine-coupled, Fcγ receptor titrated 375-6000 nM, 1:1 fit
T1 construct: also called Type IIA R167
T1 sequence (looked up): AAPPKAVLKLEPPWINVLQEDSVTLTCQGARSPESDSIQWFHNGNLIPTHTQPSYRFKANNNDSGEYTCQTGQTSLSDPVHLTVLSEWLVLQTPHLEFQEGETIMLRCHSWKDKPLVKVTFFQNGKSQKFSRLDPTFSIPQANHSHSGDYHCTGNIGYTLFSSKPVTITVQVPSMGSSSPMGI
Protocol: (§1) The Fc region incorporated into anti-PSMA bispecific constructs contained mutations intended to reduce or abolish binding to common human and cynomolgus Fc gamma receptors. SPR experiments were conducted at 25° C. in HBS-EP+ with 0.2% BSA buffer on a Biacore T200 system to evaluate the impact of these mutations on binding. For these experiments, three flow cells of a CM5 sensor chip were immobilized with anti-PSMA bispecifics by standard amine coupling to a response level of ˜2000 RU. A blank immobilization was performed on flow cell #1 for purposes of background signal subtraction. Both human and cynomolgus monkey Fcγ receptors (purchased from R&D Systems) were diluted in HBS-EP+ with 0.2% BSA to 4-6 μM and then flowed as analytes at 30 μL/min for 120 seconds followed by a 240 second dissociation step. No regeneration step was required. Blank-subtracted sensorgrams were visually inspected for binding to each of the Fcγ receptor proteins. […] Attenuated binding to Fcγ receptors IIA (both polymorphic variants) and IIB/C was observed. PSMA01107 and PSMA01108 share the same Fc amino acid sequence and therefore equivalent Fcγ receptor binding behavior was expected.
(§2) TSC266 (PSMA×CD3 bispecific antibody) and another protein containing a wild-type IgG1 Fc sequence were also analyzed for comparison. Sensorgrams obtained from kinetic SPR measurements were analyzed by the double subtraction method in the Biacore T200 evaluation software. Kinetic parameters were derived from a one-to-one binding fit model and reported below in Table 8. Both TSC266 and PSMA01107 show reduced binding compared to a wild type IgG1 Fc.

[2] = biological target: T2, human Fcγ receptor IIA, H167 variant (human, UniProt P12318 36-218); test: as above
T2 sequence (looked up): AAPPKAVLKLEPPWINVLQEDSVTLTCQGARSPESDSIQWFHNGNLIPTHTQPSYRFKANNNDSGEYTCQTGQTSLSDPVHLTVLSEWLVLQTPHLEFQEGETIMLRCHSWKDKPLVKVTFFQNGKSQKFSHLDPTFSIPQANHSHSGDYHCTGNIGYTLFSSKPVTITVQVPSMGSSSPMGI
Protocol: as §1, §2

human Fcγ receptor IIB/C = biological target: T3, human Fcγ receptor IIB/C (human, UniProt P31994 46-217); test: as above
T3 sequence (looked up): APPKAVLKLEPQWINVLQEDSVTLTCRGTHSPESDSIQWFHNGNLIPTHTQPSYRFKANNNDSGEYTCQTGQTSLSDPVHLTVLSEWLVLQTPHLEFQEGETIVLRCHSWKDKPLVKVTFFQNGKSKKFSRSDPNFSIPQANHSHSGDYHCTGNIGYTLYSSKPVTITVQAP
Protocol: as §1, §2

[3] = biological target: T4, Human PSMA ECD-AFH (TSC033), recombinant dimeric PSMA ECD (human, UniProt Q04609 44-750); test: SPR (Biacore), recombinant dimeric PSMA ECD
T4 construct: SEC-purified dimer; also called HuPSMA-AFH; Avi-His-Human PSMA ECD
Protocol: (§3) Mouse anti-human IgG (GE, BR-1008-39) at 25 μg/ml in 10 mM sodium acetate pH 5.0 was immobilized at a density of ˜2,000-4,000 response units (RU) onto each flow cell of a CM5 research-grade sensor chip (GE) by standard amine coupling chemistry. Each anti-PSMA protein at approximately 40 nM in dPBS with 0.2% BSA buffer was captured in a flow cell with the immobilized anti-human IgG at a flow rate of […] for up to 30 seconds, leaving one flow cell surface unmodified as the reference. Using a multi-cycle kinetics mode, a buffer blank and […] different concentrations of ECD ranging from 1 nM to 243 nM were sequentially injected through each flow cell at 30 μL/min with association times varying from 300-600 seconds and dissociation times varying from 600-1200 seconds. Regeneration was achieved by injection of 3 M MgCl₂ at a flow rate of 30 μL/min for up to 40 seconds followed by dPBS with 0.2% BSA buffer stabilization for 1 min.
(§4) The KD was determined for a set of PSMA×CD3 bispecific proteins binding to recombinant dimeric PSMA ECD using SPR. In comparison to the constructs analyzed in Table 3, which all had the anti-PSMA scFv in the VL-VH orientation, the constructs in Table 11 have sequences with the reverse the order of the variable domains. The constructs below utilize the PSMA01023 anti-PSMA sequence as a basis.

[4] = biological target: T4, Human PSMA ECD-AFH (TSC033), …; test: SPR (Biacore), recombinant dimeric PSMA ECD; remark: listed apart in the source
Protocol: as §3, §4

T4 sequence (Q04609 other isoform, or with tags, fused parts or gaps): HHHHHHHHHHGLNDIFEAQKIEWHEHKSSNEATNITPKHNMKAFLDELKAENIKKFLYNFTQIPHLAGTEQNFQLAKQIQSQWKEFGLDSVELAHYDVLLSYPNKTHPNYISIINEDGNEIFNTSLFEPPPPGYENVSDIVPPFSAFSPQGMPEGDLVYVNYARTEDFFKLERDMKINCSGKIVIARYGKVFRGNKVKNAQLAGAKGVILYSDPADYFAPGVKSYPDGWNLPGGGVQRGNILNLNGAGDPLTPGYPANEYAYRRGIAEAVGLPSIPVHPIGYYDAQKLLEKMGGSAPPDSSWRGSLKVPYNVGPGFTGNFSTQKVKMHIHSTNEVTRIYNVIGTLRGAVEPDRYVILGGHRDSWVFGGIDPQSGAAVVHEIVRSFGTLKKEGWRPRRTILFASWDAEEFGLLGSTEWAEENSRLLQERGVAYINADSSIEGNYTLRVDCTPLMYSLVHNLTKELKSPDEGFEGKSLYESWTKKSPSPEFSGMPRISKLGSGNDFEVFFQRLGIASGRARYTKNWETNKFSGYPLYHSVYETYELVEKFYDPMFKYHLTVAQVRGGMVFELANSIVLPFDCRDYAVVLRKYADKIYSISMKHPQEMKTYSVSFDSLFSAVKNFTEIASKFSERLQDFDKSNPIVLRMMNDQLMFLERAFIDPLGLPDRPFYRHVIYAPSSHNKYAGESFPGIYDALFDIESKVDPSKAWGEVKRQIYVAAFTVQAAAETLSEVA

B1: TSC266 Anti PSMA scFv x Anti CD3 scFv ADAPTIR (bispecific antibody)
chain: DIQMTQSPSAMSASVGDRVTITCRASKSISKYLAWFQQKPGKVPKLRIHSGSTLQSGVPSRFSGSGSGTEFTLTISSLQPEDFATYYCQQHIEYPWTFGQGTKVEIKRGGGGSGGGGSGGGGSQVQLVQSGAEVKKPGASVKVSCKASGYTFTDYYMHWVRQAPGQGLEWMGYFNPYNDYTRYAQKFQGRVTMTRDTSISTAYMELSSLRSDDTAVYYCARSDGYYDAMDYWGQGTTVTVSSSEPKSSDKTHTCPPCPAPEAAGAPSVFLFPPKPKDTLMISRTPEVTCVVVDVSHEDPEVKFNWYVDGVEVHNAKTKPREEQYNSTYRVVSVLTVLHQDWLNGKAYACAVSNKALPAPIEKTISKAKGQPREPQVYTLPPSRDELTKNQVSLTCLVKGFYPSDIAVEWESNGQPENNYKTTPPVLDSDGSFFLYSKLTVDKSRWQQGNVFSCSVMHEALHNHYTQKSLSLSPGQRHNNSSLNTGTQMAGHSPNSQVQLVESGGGVVQPGRSLRLSCKASGYTFTRSTMHWVRQAPGQGLEWIGYINPSSAYTNYNQKFKDRFTISADKSKSTAFLQMDSLRPEDTGVYFCARPQVHYDYNGFPYWGQGTPVTVSSGGGGSGGGGSGGGGSAQDIQMTQSPSSLSASVGDRVTMTCSASSSVSYMNWYQQKPGKAPKRWIYDSSKLASGVPARFSGSGSGTDYTLTISSLQPEDFATYYCQQWSRNPPTFGGGTKLQITSSS
notes: The anti-PSMA domain is that of PSMA01012 and the anti-CD3 domain is DRA222; also called unoptimized parent construct; TSC266 control (PSMA × CD3 bispecific protein)
- Kd [1]: 1500 nM
- Kd [2]: 20000 nM
- Kd (human Fcγ receptor IIB/C): 2700 nM

B2: PSMA01107 Anti-PSMA scFv x Fc x linker x Anti CD3 scFv; Anti PSMA scFv x Fc (bispecific antibody)
chain 1: QVQLVQSGAEVKKPGASVKVSCKASGYTFTDYYMHWVRQAPGQGLEWMGYFNPYNDYTRYAQKFQGRVTMTRDTSTSTVYMELSSLRSEDTAVYYCARSDGYYDAMDYWGQGTTVTVSSGGGGSGGGGSGGGGSGGGGSDIQMTQSPSSLSASVGDRVTITCRASKSISKYLAWYQQKPGKAPKLLIHSGSSLESGVPSRFSGSGSGTEFTLTISSLQPDDFATYYCQQHIEYPWTFGQGTKVEIKEPKSSDKTHTCPPCPAPPAAAPSVFLFPPKPKDTLMISRTPEVTCVVVDVSHEDPEVKFNWYVDGVEVHNAKTKPREEQYNSTYRVVSVLTVLHQDWLNGKEYKCAVSNKALPAPIEKTISKAKGQPREPQVYTLPPSRDELTKNQVSLWCLVKGFYPSDIAVEWESNGQPENNYKTTPPVLDSDGSFFLYSKLTVDKSRWQQGNVFSCSVMHEALHNHYTQKSLSLSPGGGGSPSQVQLVQSGAEVKKPGASVKVSCKASGYTFTRSTMHWVRQAPGQGLEWIGYINPSSAYTNYAQKFQGRVTLTADKSTSTAYMELSSLRSEDTAVYYCASPQVHYDYNGFPYWGQGTLVTVSSGGGGSGGGGSGGGGSGGGGSDIQMTQSPSSLSASVGDRVTITCRASSSVSYMNWYQQKPGKAPKRWIYDSSKLASGVPSRFSGSGSGTDFTLTISSLQPEDFATYYCQQWSRNPPTFGQGTKVEIKRS
chain 2: QVQLVQSGAEVKKPGASVKVSCKASGYTFTDYYMHWVRQAPGQGLEWMGYFNPYNDYTRYAQKFQGRVTMTRDTSTSTVYMELSSLRSEDTAVYYCARSDGYYDAMDYWGQGTTVTVSSGGGGSGGGGSGGGGSGGGGSDIQMTQSPSSLSASVGDRVTITCRASKSISKYLAWYQQKPGKAPKLLIHSGSSLESGVPSRFSGSGSGTEFTLTISSLQPDDFATYYCQQHIEYPWTFGQGTKVEIKEPKSSDKTHTCPPCPAPPAAAPSVFLFPPKPKDTLMISRTPEVTCVVVDVSHEDPEVKFNWYVDGVEVHNAKTKPREEQYNSTYRVVSVLTVLHQDWLNGKEYKCAVSNKALPAPIEKTISKAKGQPREPQVYTLPPSRDELTKNQVSLSCAVKGFYPSDIAVEWESNGQPENNYKTTPPVLDSDGSFFLVSKLTVDKSRWQQGNVFSCSVMHEALHNHYTQKSLSLSPG
notes: Heterodimer, bivalent for PSMA and monovalent for CD3 (VH-VL scFv at the C-terminus); also called PSMA1107
- Kd [3]: < 10 nM
- Kd [4]: 3.4 nM
- koff [4]: 8.5e-05 s⁻¹
- kon [4]: 29000 M⁻¹ s⁻¹
- Kd [1]: 5300 nM
- Kd [2]: 19900 nM
- Kd (human Fcγ receptor IIB/C): 6500 nM

B3: PSMA01108 Anti-PSMA scFv x Fc x linker x Anti CD3 scFv; Anti PSMA scFv x Fc (bispecific antibody)
chain 1: QVQLVQSGAEVKKPGASVKVSCKASGYTFTDYYMHWVRQAPGQGLEWMGYFNPYNDYTRYAQKFQGRVTMTRDTSTSTVYMELSSLRSEDTAVYYCARSDGYYDAMDYWGQGTTVTVSSGGGGSGGGGSGGGGSGGGGSDIQMTQSPSSLSASVGDRVTITCRASKSISKYLAWYQQKPGKAPKLLIHSGSSLESGVPSRFSGSGSGTEFTLTISSLQPDDFATYYCQQHIEYPWTFGQGTKVEIKEPKSSDKTHTCPPCPAPPAAAPSVFLFPPKPKDTLMISRTPEVTCVVVDVSHEDPEVKFNWYVDGVEVHNAKTKPREEQYNSTYRVVSVLTVLHQDWLNGKEYKCAVSNKALPAPIEKTISKAKGQPREPQVYTLPPSRDELTKNQVSLWCLVKGFYPSDIAVEWESNGQPENNYKTTPPVLDSDGSFFLYSKLTVDKSRWQQGNVFSCSVMHEALHNHYTQKSLSLSPGGGGSPSDIQMTQSPSSLSASVGDRVTITCRASSSVSYMNWYQQKPGKAPKRWIYDSSKLASGVPSRFSGSGSGTDFTLTISSLQPEDFATYYCQQWSRNPPTFGQGTKVEIKGGGGSGGGGSGGGGSGGGGSQVQLVQSGAEVKKPGASVKVSCKASGYTFTRSTMHWVRQAPGQGLEWIGYINPSSAYTNYAQKFQGRVTLTADKSTSTAYMELSSLRSEDTAVYYCASPQVHYDYNGFPYWGQGTLVTVSS
chain 2: QVQLVQSGAEVKKPGASVKVSCKASGYTFTDYYMHWVRQAPGQGLEWMGYFNPYNDYTRYAQKFQGRVTMTRDTSTSTVYMELSSLRSEDTAVYYCARSDGYYDAMDYWGQGTTVTVSSGGGGSGGGGSGGGGSGGGGSDIQMTQSPSSLSASVGDRVTITCRASKSISKYLAWYQQKPGKAPKLLIHSGSSLESGVPSRFSGSGSGTEFTLTISSLQPDDFATYYCQQHIEYPWTFGQGTKVEIKEPKSSDKTHTCPPCPAPPAAAPSVFLFPPKPKDTLMISRTPEVTCVVVDVSHEDPEVKFNWYVDGVEVHNAKTKPREEQYNSTYRVVSVLTVLHQDWLNGKEYKCAVSNKALPAPIEKTISKAKGQPREPQVYTLPPSRDELTKNQVSLSCAVKGFYPSDIAVEWESNGQPENNYKTTPPVLDSDGSFFLVSKLTVDKSRWQQGNVFSCSVMHEALHNHYTQKSLSLSPG
notes: also called PSMA1108; PSAM01108
- Kd [3]: < 10 nM
- Kd [4]: 3.1 nM
- koff [4]: 9e-05 s⁻¹
- kon [4]: 29000 M⁻¹ s⁻¹
